First the molecules themselves.
B1: Vps4^E233Q (full-length yeast Vps4 containing an E233Q mutation) (enzyme, Saccharomyces cerevisiae, UniProt P52917 1-437, looked up)
chain: MSTGDFLTKGIELVQKAIDLDTATQYEEAYTAYYNGLDYLMLALKYEKNPKSKDLIRAKFTEYLNRAEQLKKHLESEEANAAKKSPSAGSGSNGGNKKISQEEGEDNGGEDNKKLRGALSSAILSEKPNVKWEDVAGLEGAKEALKEAVILPVKFPHLFKGNRKPTSGILLYGPPGTGKSYLAKAVATEANSTFFSVSSSDLVSKWMGESEKLVKQLFAMARENKPSIIFIDQVDALTGTRGEGESEASRRIKTELLVQMNGVGNDSQGVLVLGATNIPWQLDSAIRRRFERRIYIPLPDLAARTTMFEINVGDTPCVLTKEDYRTLGAMTEGYSGSDIAVVVKDALMQPIRKIQSATHFKDVSTEDDETRKLTPCSPGDDGAIEMSWTDIEADELKEPDLTIKDFLKAIKSTRPTVNEDDLLKQEQFTRDFGQEGN
notes: Vps4 (vacuolar protein sorting 4), Saccharomyces cerevisiae, full length, with E233Q; Hexamer with ATP, dimer without ATP; written as the protomer because its self-association is what is measured; also called E233Q mutant; Vps4 E233Q mutant; source: E. coli BL21 (DE3), purified (Ni-NTA, apyrase treatment, SEC)
B2: Vps4 mutant E233QR325A (enzyme, Saccharomyces cerevisiae, UniProt P52917 1-437, looked up)
chain: B1 chain with R325A
notes: Vps4, Saccharomyces cerevisiae, with E233Q and R325A; also called E233QR325A mutant; source: E. coli BL21 (DE3), purified (Ni-NTA, apyrase treatment, SEC)
B3: Vta1 (Vps twenty associated 1) (natural protein, Saccharomyces cerevisiae)
chain: MASNAARVVATAKDFDKVGLGIIGYYLQLYAVELILSEEDRSQEMTALATELLDTIEAFKKEIGGESEAEDSDKSLHVMNTLIHDQEKAKIYMLNFTMSLYNEKLKQLKDGPWDVMLKRSLWCCIDLFSCILHLWKENISETSTNSLQKRIKYCKIYLSKLAKGEIGSSDEKTLDYADFADDSEEIKDEDVDHQTSDLENNNNDKVEGLAPKDQTTSYEPVDEVPEFIDDADSVNEEEQTVDKNEDAITKDEQQVVKKEVDLTRPSAPSEPAAAEHKSYTKDELTKIMDRASKIEQIQKLAKYAISALNYEDLPTAKDELTKALDLLNSI
notes: Vta1, Saccharomyces cerevisiae, gene amplified from yeast genomic DNA; also called Vta1 dimer; source: E. coli BL21 (DE3), purified (Ni-NTA, apyrase treatment, SEC)
B4: Vta1^C124S154S, Cy3-labelled (single-cysteine mutant) (natural protein, Saccharomyces cerevisiae)
chain: B3 chain with C124S, C154S
modifications: Cy3 maleimide on the single cysteine
notes: Vta1, Saccharomyces cerevisiae, with C124S and C154S (only one cysteine left); source: E. coli BL21 (DE3), purified as for other mutant proteins, labelled with Cy3 maleimide

Data set [1] deals with the molecule itself. Kind of data set: SEC; oligomeric state without ATP (Supplementary Fig. 9). A general note: Size exclusion chromatography separates by hydrodynamic size, large species first.
Data set [2] deals with the molecule itself. Kind of data set: SEC-MALS; 200 ul of 5 mg/ml (50 uM) Vps4^E233Q preincubated with 1 mM ATP at 4 C for 1 h; Superdex 200 10/300 GL; assembly buffer (20 mM HEPES pH 7.5, 100 mM NaCl, 1 mM DTT, 2 mM MgCl2, 1 mM ATP).
Data set [3] deals with the molecule itself. The data set is described as follows: SEC; oligomeric state with ATP: each mutant at 100 uM incubated with 1 mM ATP at 4 C for 1 h; Superdex 200 10/300 GL in assembly buffer.
For a further data set, the target named is T1, Vps4 (wild-type, yeast) (Saccharomyces cerevisiae, UniProt P52917 1-437, Cy5 maleimide (labelling efficiency 48%) in the single-molecule assay; unlabelled in the ATPase assay).
T1 sequence (looked up): B1 chain with Q233E
Kind of data set: cell-based or functional assay.

Data set [4] addresses B1. The data set is described as follows: SEC; Vps4 mutants at 5 uM with Vta1 at molar ratio 1:2, 1 mM ATP, 4 C, 1 h; Superose 6 10/300 GL in assembly buffer. The conditions noted are these: both partners purified.
Data set [5] concerns the molecule itself. Kind of data set: cryo-EM structure; ATP-bound Vps4^E233Q-Vta1 complex (1.5- to 2-fold molar excess of Vta1, 1 mM ATP, Superose 6), no glutaraldehyde; no symmetry imposed; 4.2 A.
Data set [6] addresses T2, Vps4^E233QC376S, Cy5-labelled (single-cysteine mutant) (Saccharomyces cerevisiae, UniProt P52917 1-437, E233Q | C376S, Cy5 maleimide on the single cysteine).
T2 construct: Vps4, Saccharomyces cerevisiae, with E233Q and C376S (only one cysteine left); source: E. coli BL21 (DE3), purified as for other mutant proteins, labelled with Cy5 maleimide
T2 sequence (looked up): B1 chain with C376S
Kind of data set: fluorescence of two dyes in the SEC-separated complex; Cy5-Vps4 and Cy3-Vta1 single-cysteine mutants incubated at molar ratio 1:2 with ATP on ice 1 h, complex separated by SEC in assembly buffer; concentrations from standard curves of fluorescence. The conditions noted are these: both partners purified.

Four molecules from publication PMC5520056, “Cryo-EM structures of the ATP-bound Vps4^E233Q hexamer and its complex with Vta1 at near-atomic resolution” (Nature Communications, 2017) can be followed below.

Substitutions are numbered along the chain they refer to. In names and notes the source's numbering stands.

Turning to B1, the “stoichiometry N” value in data set [1] is 2; in data set [2] it was 6.
In the case of B2, the “stoichiometry N” value is 6 in data set [3] and 2 in data set [1].
Regarding B3, the “ATPase activity (malachite green) of 1 uM wild-type Vps4 in the presence of Vta1” value in the data set with Vps4 (wild-type, yeast) came out at 2 fold. The binding result in data set [4] and in data set [5] was “binds” throughout.
As to B4, the “stoichiometry N” value in data set [6] is 2.06 Vta1/Vps4^E233Q (molar ratio).

One may read the stoichiometry N as the number of molecules, sites or subunits per partner or assembly.
